According to patent US20160024487:

What was measured:
[1] = molecular target: T1, Lys(Dnp)-ATNATMMPRIVGG-Lys(Abz)
T1 chain: KATNATMMPRIVGGK

[2] = molecular target: T2, Lys(Dnp)-ATNATPQPRIVGG-Lys(Abz)
T2 chain: KATNATPQPRIVGGK

[3] = molecular target: T3, Lys(Dnp)-ATNATLKPRIVGG-Lys(Abz)
T3 chain: KATNATLKPRIVGGK

[4] = molecular target: T4, Lys(Dnp)-ATNATAVPRIVGG-Lys(Abz)
T4 chain: KATNATAVPRIVGGK

[5] = molecular target: T5, Lys(Dnp)-ATNATAAPRIVGG-Lys(Abz)
T5 chain: KATNATAAPRIVGGK

[6] = molecular target: T6, Lys(Dnp)-ATNATVTPRIVGG-Lys(Abz)
T6 chain: KATNATVTPRIVGGK

[7] = molecular target: T7, Lys(Dnp)-ATNATLMPRIVGG-Lys(Abz)
T7 chain: KATNATLMPRIVGGK

[8] = molecular target: T8, Lys(Dnp)-ATNATIKPRIVGG-Lys(Abz)
T8 chain: KATNATIKPRIVGGK

[9] = molecular target: T9, Lys(Dnp)-ATNATWHPRIVGG-Lys(Abz)
T9 chain: KATNATWHPRIVGGK

[10] = molecular target: T10, Lys(Dnp)-ATNATLIPRIVGG-Lys(Abz)
T10 chain: KATNATLIPRIVGGK

[11] = molecular target: T11, Lys(Dnp)-ATNATMQPRIVGG-Lys(Abz)
T11 chain: KATNATMQPRIVGGK

[12] = molecular target: T12, Lys(Dnp)-ATNATVHPRIVGG-Lys(Abz)
T12 chain: KATNATVHPRIVGGK

[13] = molecular target: T13, Lys(Dnp)-ATNATVVPRIVGG-Lys(Abz)
T13 chain: KATNATVVPRIVGGK

[14] = molecular target: T14, Lys(Dnp)-ATNATWKPRIVGG-Lys(Abz)
T14 chain: KATNATWKPRIVGGK

[15] = molecular target: T15, Lys(Dnp)-ATNATQNPRIVGG-Lys(Abz)
T15 chain: KATNATQNPRIVGGK

[16] = molecular target: T16, Lys(Dnp)-ATNATAMPRIVGG-Lys(Abz)
T16 chain: KATNATAMPRIVGGK

[17] = molecular target: T17, Lys(Dnp)-ATNATKLPRIVGG-Lys(Abz)
T17 chain: KATNATKLPRIVGGK

[18] = molecular target: T18, Lys(Dnp)-ATNATPHPRIVGG-Lys(Abz)
T18 chain: KATNATPHPRIVGGK

[19] = molecular target: T19, Lys(Dnp)-ATNATRTPRIVGG-Lys(Abz)
T19 chain: KATNATRTPRIVGGK

[20] = molecular target: T20, Lys(Dnp)-ATNATNLPRIVGG-Lys(Abz)
T20 chain: KATNATNLPRIVGGK

[21] = molecular target: T21, Lys(Dnp)-ATNATSKPRIVGG-Lys(Abz)
T21 chain: KATNATSKPRIVGGK

[22] = molecular target: T22, Lys(Dnp)-ATNATHDPRIVGG-Lys(Abz)
T22 chain: KATNATHDPRIVGGK

[23] = molecular target: T23, Lys(Dnp)-ATNATSLPRIVGG-Lys(Abz)
T23 chain: KATNATSLPRIVGGK

[24] = molecular target: T24, Lys(Dnp)-ATNATRLPRIVGG-Lys(Abz)
T24 chain: KATNATRLPRIVGGK

[25] = molecular target: T25, Lys(Dnp)-ATNATSNPRIVGG-Lys(Abz)
T25 chain: KATNATSNPRIVGGK

[26] = molecular target: T26, Lys(Dnp)-ATNATVPPRIVGG-Lys(Abz)
T26 chain: KATNATVPPRIVGGK

[27] = molecular target: T27, Lys(Dnp)-ATNATTMPRIVGG-Lys(Abz)
T27 chain: KATNATTMPRIVGGK

[28] = molecular target: T28, Lys(Dnp)-ATNATMNPRIVGG-Lys(Abz)
T28 chain: KATNATMNPRIVGGK

[29] = molecular target: T29, Lys(Dnp)-ATNATQIPRIVGG-Lys(Abz)
T29 chain: KATNATQIPRIVGGK

[30] = molecular target: T30, Lys(Dnp)-ATNATFIPRIVGG-Lys(Abz)
T30 chain: KATNATFIPRIVGGK

[31] = molecular target: T31, Lys(Dnp)-ATNATAQPRIVGG-Lys(Abz)
T31 chain: KATNATAQPRIVGGK

[32] = molecular target: T32, Lys(Dnp)-ATNATHLPRIVGG-Lys(Abz)
T32 chain: KATNATHLPRIVGGK

[33] = molecular target: T33, Lys(Dnp)-ATNATQFPRIVGG-Lys(Abz)
T33 chain: KATNATQFPRIVGGK

[34] = molecular target: T34, Lys(Dnp)-ATNATIDPRIVGG-Lys(Abz)
T34 chain: KATNATIDPRIVGGK

[35] = molecular target: T35, Lys(Dnp)-ATNATGWPRIVGG-Lys(Abz)
T35 chain: KATNATGWPRIVGGK

[36] = molecular target: T36, Lys(Dnp)-ATNATKKPRIVGG-Lys(Abz)
T36 chain: KATNATKKPRIVGGK

[37] = molecular target: T37, Lys(Dnp)-ATNATIGPRIVGG-Lys(Abz)
T37 chain: KATNATIGPRIVGGK

[38] = molecular target: T38, Lys(Dnp)-ATNATEGPRIVGG-Lys(Abz)
T38 chain: KATNATEGPRIVGGK

[39] = molecular target: T39, Lys(Dnp)-ATNATYMPRIVGG-Lys(Abz)
T39 chain: KATNATYMPRIVGGK

[40] = molecular target: T40, Lys(Dnp)-ATNATDTPRIVGG-Lys(Abz)
T40 chain: KATNATDTPRIVGGK

[41] = molecular target: T41, Lys(Dnp)-ATNATKQPRIVGG-Lys(Abz)
T41 chain: KATNATKQPRIVGGK

B1: Human plasma purified Factor Xa (protein)
chain 1: ANSFLEEMKKGHLERECMEETCSYEEAREVFEDSDKTNEFWNKYKDGDQCETSPCQNQGKCKDGLGEYTCTCLEGFEGKNCELFTRKLCSLDNGDCDQFCHEEQNSVVCSCARGYTLADNGKACIPTGPYPCGKQTLER
chain 2: IVGGQECKDGECPWQALLINEENEGFCGGTILSEFYILTAAHCLYQAKRFKVRVGDRNTEQEEGGEAVHEVEVVIKHNRFTKETYDFDIAVLRLKTPITFRMNVAPACLPERDWAESTLMTQKTGIVSGFGRTHEKGRQSTRLKMLEVPYVDRNSCKLSSSFIITQNMFCAGYDTKQEDACQGDSGGPHVTRFKDTYFVTGIVSWGEGCARKGKYGIYTKVTAFLKWIDRSMKTRGLPKAKSHAPEVITSSPLK
- FXa kcat/KM [1]: 1000 M⁻¹ s⁻¹
- FXa kcat/KM [2]: 1100 M⁻¹ s⁻¹
- FXa kcat/KM [3]: 72 M⁻¹ s⁻¹
- FXa kcat/KM [4]: 42 M⁻¹ s⁻¹
- FXa kcat/KM [5]: 45 M⁻¹ s⁻¹
- FXa kcat/KM [6]: 68 M⁻¹ s⁻¹
- FXa kcat/KM [7]: 2700 M⁻¹ s⁻¹
- FXa kcat/KM [8]: 120 M⁻¹ s⁻¹
- FXa kcat/KM [9]: 42 M⁻¹ s⁻¹
- FXa kcat/KM [10]: 420 M⁻¹ s⁻¹
- FXa kcat/KM [11]: 950 M⁻¹ s⁻¹
- FXa kcat/KM [12]: 67 M⁻¹ s⁻¹
- FXa kcat/KM [13]: 54 M⁻¹ s⁻¹
- FXa kcat/KM [14]: 41 M⁻¹ s⁻¹

B2: Human plasma purified Factor Xa (Molecular Innovations, Inc) (protein)
chain 1: B1 chain 1
chain 2: B1 chain 2
- FXa kcat/KM [15]: 610 M⁻¹ s⁻¹
- FXa kcat/KM [16]: 460 M⁻¹ s⁻¹
- FXa kcat/KM [17]: 89 M⁻¹ s⁻¹
- FXa kcat/KM [18]: 360 M⁻¹ s⁻¹
- FXa kcat/KM [19]: 1500 M⁻¹ s⁻¹
- FXa kcat/KM [20]: 110 M⁻¹ s⁻¹
- FXa kcat/KM [21]: 13 M⁻¹ s⁻¹
- FXa kcat/KM [22]: 86 M⁻¹ s⁻¹
- FXa kcat/KM [23]: 82 M⁻¹ s⁻¹
- FXa kcat/KM [24]: 1400 M⁻¹ s⁻¹
- FXa kcat/KM [25]: 24 M⁻¹ s⁻¹
- FXa kcat/KM [26]: 6.3 M⁻¹ s⁻¹
- FXa kcat/KM [27]: 13 M⁻¹ s⁻¹
- FXa kcat/KM [28]: 430 M⁻¹ s⁻¹
- FXa kcat/KM [29]: 630 M⁻¹ s⁻¹
- FXa kcat/KM [30]: 150 M⁻¹ s⁻¹
- FXa kcat/KM [31]: 460 M⁻¹ s⁻¹
- FXa kcat/KM [32]: 140 M⁻¹ s⁻¹
- FXa kcat/KM [33]: 150 M⁻¹ s⁻¹
- FXa kcat/KM [34]: 1300 M⁻¹ s⁻¹
- FXa kcat/KM [35]: 82 M⁻¹ s⁻¹
- FXa kcat/KM [36]: 25 M⁻¹ s⁻¹
- FXa kcat/KM [37]: 170 M⁻¹ s⁻¹
- FXa kcat/KM [38]: 18 M⁻¹ s⁻¹
- FXa kcat/KM [39]: 160 M⁻¹ s⁻¹
- FXa kcat/KM [40]: 6.4 M⁻¹ s⁻¹
- FXa kcat/KM [41]: 100 M⁻¹ s⁻¹
